Laboratory results from the supplement of paper PMC9112550, “Optimization of the antimicrobial peptide Bac7 by deep mutational scanning” (BMC Biology, 2022).

Tested on: Escherichia coli TOP10
Assay: shrunken log2 fold change of peptide-encoding DNA abundance (4.5 h post-induction vs induction); higher = less antimicrobial activity (less host growth inhibition)
Conditions: time post-induction: 4.5 h; library: site-saturation at positions 5, 18, 19, 20
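Further: peptides expressed intracellularly from a pBAD plasmid library in pooled LB shake-flask culture, induced with 0.3% L-arabinose, DNA abundance read by NGS, three biological replicates, DESeq2 with apeglm shrinkage.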

RRIRIRPPRLPRPRPRPCTCPRP
shrunken log2 fold change: -0.652

RRIRIRPPRLPRPRPRPCTLPRP
shrunken log2 fold change: -1.08

RRIRIRPPRLPRPRPRPCTTPRP
shrunken log2 fold change: -0.543

RRIRIRPPRLPRPRPRPCYGPRP
shrunken log2 fold change: -0.202

RRIRIRPPRLPRPRPRPCYPPRP
shrunken log2 fold change: -0.428

RRIRIRPPRLPRPRPRPDAFPRP
shrunken log2 fold change: -0.15

RRIRIRPPRLPRPRPRPDCNPRP
shrunken log2 fold change: -0.164

RRIRIRPPRLPRPRPRPDCRPRP
shrunken log2 fold change: -0.015

RRIRIRPPRLPRPRPRPDFVPRP
shrunken log2 fold change: -0.0852

RRIRIRPPRLPRPRPRPDGDPRP
shrunken log2 fold change: -0.176

RRIRIRPPRLPRPRPRPDGGPRP
shrunken log2 fold change: -0.446

RRIRIRPPRLPRPRPRPDHTPRP
shrunken log2 fold change: -0.25

RRIRIRPPRLPRPRPRPDKHPRP
shrunken log2 fold change: -0.979

RRIRIRPPRLPRPRPRPDKIPRP
shrunken log2 fold change: -0.0602

RRIRIRPPRLPRPRPRPDKQPRP
shrunken log2 fold change: 0.0185

RRIRIRPPRLPRPRPRPDKRPRP
shrunken log2 fold change: -0.0405

RRIRIRPPRLPRPRPRPDLVPRP
shrunken log2 fold change: -0.201

RRIRIRPPRLPRPRPRPDQDPRP
shrunken log2 fold change: -0.162

RRIRIRPPRLPRPRPRPDRSPRP
shrunken log2 fold change: -0.364

RRIRIRPPRLPRPRPRPDRWPRP
shrunken log2 fold change: 0.0549

RRIRIRPPRLPRPRPRPDRYPRP
shrunken log2 fold change: -0.032

RRIRIRPPRLPRPRPRPDTMPRP
shrunken log2 fold change: -0.272

RRIRIRPPRLPRPRPRPDYKPRP
shrunken log2 fold change: -0.231

RRIRIRPPRLPRPRPRPEAPPRP
shrunken log2 fold change: 0.366

RRIRIRPPRLPRPRPRPECMPRP
shrunken log2 fold change: -0.428

RRIRIRPPRLPRPRPRPECNPRP
shrunken log2 fold change: -0.324

RRIRIRPPRLPRPRPRPEDLPRP
shrunken log2 fold change: -0.00555

RRIRIRPPRLPRPRPRPEDMPRP
shrunken log2 fold change: 0.0397

RRIRIRPPRLPRPRPRPEDNPRP
shrunken log2 fold change: -0.138

RRIRIRPPRLPRPRPRPEGFPRP
shrunken log2 fold change: -0.321

RRIRIRPPRLPRPRPRPEGNPRP
shrunken log2 fold change: 0.0775

RRIRIRPPRLPRPRPRPEGSPRP
shrunken log2 fold change: 0.0664

RRIRIRPPRLPRPRPRPEIVPRP
shrunken log2 fold change: -0.255

RRIRIRPPRLPRPRPRPEKHPRP
shrunken log2 fold change: -0.106

RRIRIRPPRLPRPRPRPEKSPRP
shrunken log2 fold change: 0.028

RRIRIRPPRLPRPRPRPELGPRP
shrunken log2 fold change: 0.0694

RRIRIRPPRLPRPRPRPELLPRP
shrunken log2 fold change: -0.0102

RRIRIRPPRLPRPRPRPELNPRP
shrunken log2 fold change: 0.12

RRIRIRPPRLPRPRPRPELYPRP
shrunken log2 fold change: -0.0779

RRIRIRPPRLPRPRPRPEMAPRP
shrunken log2 fold change: -0.061

RRIRIRPPRLPRPRPRPEMLPRP
shrunken log2 fold change: -0.119

RRIRIRPPRLPRPRPRPEMNPRP
shrunken log2 fold change: -0.0353

RRIRIRPPRLPRPRPRPEMQPRP
shrunken log2 fold change: 0.128

RRIRIRPPRLPRPRPRPENTPRP
shrunken log2 fold change: -0.397

RRIRIRPPRLPRPRPRPEPGPRP
shrunken log2 fold change: 0.253

RRIRIRPPRLPRPRPRPERDPRP
shrunken log2 fold change: -0.175

RRIRIRPPRLPRPRPRPETAPRP
shrunken log2 fold change: 0.0478

RRIRIRPPRLPRPRPRPETEPRP
shrunken log2 fold change: 0.0848

RRIRIRPPRLPRPRPRPETSPRP
shrunken log2 fold change: -0.239

RRIRIRPPRLPRPRPRPETWPRP
shrunken log2 fold change: 0.142

RRIRIRPPRLPRPRPRPEVAPRP
shrunken log2 fold change: 0.218

RRIRIRPPRLPRPRPRPEVKPRP
shrunken log2 fold change: 0.135

RRIRIRPPRLPRPRPRPEVTPRP
shrunken log2 fold change: -0.0113

RRIRIRPPRLPRPRPRPEWFPRP
shrunken log2 fold change: 0.00757

RRIRIRPPRLPRPRPRPEWHPRP
shrunken log2 fold change: -0.514

RRIRIRPPRLPRPRPRPEWKPRP
shrunken log2 fold change: 0.0442

RRIRIRPPRLPRPRPRPEWMPRP
shrunken log2 fold change: -0.0985

RRIRIRPPRLPRPRPRPEWWPRP
shrunken log2 fold change: -0.0654

RRIRIRPPRLPRPRPRPEYAPRP
shrunken log2 fold change: -0.0426

RRIRIRPPRLPRPRPRPFDAPRP
shrunken log2 fold change: -0.0176

RRIRIRPPRLPRPRPRPFDVPRP
shrunken log2 fold change: -0.296

RRIRIRPPRLPRPRPRPFEAPRP
shrunken log2 fold change: -0.151

RRIRIRPPRLPRPRPRPFGCPRP
shrunken log2 fold change: -0.742

RRIRIRPPRLPRPRPRPFGMPRP
shrunken log2 fold change: -0.498

RRIRIRPPRLPRPRPRPFGTPRP
shrunken log2 fold change: -0.109

RRIRIRPPRLPRPRPRPFIKPRP
shrunken log2 fold change: -0.913

RRIRIRPPRLPRPRPRPFLIPRP
shrunken log2 fold change: -0.606

RRIRIRPPRLPRPRPRPFMGPRP
shrunken log2 fold change: -0.438

RRIRIRPPRLPRPRPRPFMWPRP
shrunken log2 fold change: -0.792

RRIRIRPPRLPRPRPRPFNSPRP
shrunken log2 fold change: -0.384

RRIRIRPPRLPRPRPRPFREPRP
shrunken log2 fold change: -0.0279

RRIRIRPPRLPRPRPRPFRNPRP
shrunken log2 fold change: -0.902

RRIRIRPPRLPRPRPRPFSPPRP
shrunken log2 fold change: -0.267

RRIRIRPPRLPRPRPRPFSSPRP
shrunken log2 fold change: -0.181

RRIRIRPPRLPRPRPRPFSVPRP
shrunken log2 fold change: -0.248
